Test results reported in EP0665886B1 (COLD SPRING HARBOR LABORATORY, dated 2003).

Molecular target: T1, human cyclin D1 (human, UniProt P24385 1-295)
T1 construct: Endogenous 35 kDa protein in co-immunoprecipitations; also called p35^cyclin D1; p35
Assay: anti-cyclin D1 immunoprecipitation

T1 sequence (P24385 whole entry): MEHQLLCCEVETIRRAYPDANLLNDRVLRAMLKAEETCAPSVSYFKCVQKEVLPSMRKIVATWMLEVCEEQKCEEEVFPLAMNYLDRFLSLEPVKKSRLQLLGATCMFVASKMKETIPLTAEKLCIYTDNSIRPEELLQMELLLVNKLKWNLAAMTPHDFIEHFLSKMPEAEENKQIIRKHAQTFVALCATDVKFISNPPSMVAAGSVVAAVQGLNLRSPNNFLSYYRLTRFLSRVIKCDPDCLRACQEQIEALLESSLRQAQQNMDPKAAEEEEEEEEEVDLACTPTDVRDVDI

share of cyclin D1-associated protein lost in RIPA buffer (0.1% SDS) against NP40 (0.5%) buffer [%]	Molecule
> 90	p21 (polypeptide of 21 kDa apparent molecular weight)
> 90	human CDK4 (enzyme, UniProt P11802 1-303, looked up, also called PSK-J3; p33^CDK4) MATSRYEPVAEIGVGAYGTVYKARDPHSGHFVALKSVRVPNGGGGGGGLPISTVREVALLRRLEAFEHPNVVRLMDVCATSRTDREIKVTLVFEHVDQDLRTYLDKAPPPGLPAETIKDLMRQFLRGLDFLHANCIVHRDLKPENILVTSGGTVKLADFGLARIYSYQMALTPVVVTLWYRAPEVLLQSTYATPVDMWSVGCIFAEMFRRKPLFCGNSEADQLGKIFDLIGLPPEDDWPRDVSLPRGAFPPRGPRPVQSVVPEMEESGAQLLLEMLTFNPHKRISAFRALQHSYLHKDEGNPE
